Test results reported in patent US20260108618A1.

Experiments:
Assay in all cases: cell-based or functional assay
[1] = target: Neuraminidase of influenza A/Hawaii/70/2019 (H1N1)pdm09 (influenza A virus A/Hawaii/70/2019 (H1N1)pdm09)
[2] = target: Neuraminidase of influenza A/Hong Kong/2671/2019 (H3N2) (influenza A virus A/Hong Kong/2671/2019 (H3N2))
[3] = target: Neuraminidase of influenza B/Phuket/3073/2013 (Yamagata) (influenza B virus B/Phuket/3073/2013 (Yamagata))
[4] = target: Neuraminidase of influenza B/Washington/02/2019 (Victoria) (influenza B virus B/Washington/02/2019 (Victoria))
[5] = target: neuraminidase of influenza A/CA/7/2009 (H1N1pdm) (Influenza A virus)
[6] = target: neuraminidase of influenza A/Hong Kong/1/1968 (H3N2) (Influenza A virus) (UniProt Q91MA2)
neuraminidase of influenza A/Hong Kong/1/1968 (H3N2) (Influenza A virus), sequence (Q91MA2 whole entry): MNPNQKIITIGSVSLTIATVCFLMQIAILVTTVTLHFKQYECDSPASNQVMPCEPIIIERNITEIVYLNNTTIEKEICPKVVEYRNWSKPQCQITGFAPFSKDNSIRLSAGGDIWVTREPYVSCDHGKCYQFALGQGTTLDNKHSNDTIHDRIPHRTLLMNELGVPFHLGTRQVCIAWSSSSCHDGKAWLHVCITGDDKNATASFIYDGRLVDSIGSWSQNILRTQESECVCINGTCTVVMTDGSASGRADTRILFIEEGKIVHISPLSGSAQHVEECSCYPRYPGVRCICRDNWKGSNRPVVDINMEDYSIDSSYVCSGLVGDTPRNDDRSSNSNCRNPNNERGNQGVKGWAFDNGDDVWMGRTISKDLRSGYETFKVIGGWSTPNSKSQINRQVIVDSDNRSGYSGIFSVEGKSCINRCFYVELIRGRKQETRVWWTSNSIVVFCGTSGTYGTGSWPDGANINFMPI

[7] = target: neuraminidase of influenza B/Florida/4/2006 (Yamagata) (Influenza B virus)
[8] = target: neuraminidase of influenza B/Malaysia/2506/2004 (Victoria) (Influenza B virus)

hIgG1 Fc (from UniProt P01857 84-329)
> 1 µM: enzyme-linked lectin assay (ELLA) (IC50), fetuin substrate, live virus [1] | enzyme-linked lectin assay (ELLA) (IC50), fetuin substrate, live virus [2] | enzyme-linked lectin assay (ELLA) (IC50), fetuin substrate, live virus [3] | enzyme-linked lectin assay (ELLA) (IC50), fetuin substrate, live virus [4] | enzyme-linked lectin assay (ELLA) IC50, fetuin substrate, virus [5] | enzyme-linked lectin assay (ELLA) IC50, fetuin substrate, virus [6] | enzyme-linked lectin assay (ELLA) IC50, fetuin substrate, virus [7] | enzyme-linked lectin assay (ELLA) IC50, fetuin substrate, virus [8]
